Earlier results in article PMC10845085.

Target: Neurotensin (Homo sapiens) (UniProt P30990)

Kd: 6 nM
Substance: Neurotensin receptor 2 (from UniProt O95665)
